Results as given in paper PMC6368601.

Target: taxol-stabilized microtubules polymerized from bovine brain tubulin dimers (bovine) (UniProt Q6B856)
Test: co-sedimentation; 100 nM ISB (WT, MTBM or Δ20) with various concentrations of taxol-stabilized microtubules; BRB80, 1 mM DTT, 50 mM NaCl, 20 uM paclitaxel; 15 min at room temperature; 50% glycerol cushion, 279,000 x g; blot with anti-Borealin; apparent Kd from a one-site specific binding fit of three experiments

Row | Substance | Kd
1 | ISB^Δ20: INCENP^1-58-Survivin-Borealin lacking the N-terminal 20 amino acids of Borealin (from UniProt Q9NQS7 1-58; O15392 1-142; Q53HL2 21-280) (complex) | 750 nM
2 | INCENP^1-58-Survivin-Borealin complex (ISB^WT), centromere-targeting region of human CPC (from UniProt Q9NQS7 1-58; O15392 1-142; Q53HL2 1-280) | 164 nM
